Measured values taken from patent US20240241109A1 (NATIONAL JEWISH HEALTH, published 2024).
Where two headings read alike, the source gives them in different places.

How the values were obtained:
[1] = molecular target: T1, wildtype SARS-COV-2 spike receptor binding domain (RBD) (SARS-COV-2 (wildtype), UniProt P0DTC2 320-541); assay: SPR (Biacore)
[2] = molecular target: T1, wildtype SARS-COV-2 spike receptor …

B1: Etesevimab (LY-CoV016) (antibody, V domains shown)
VH: EVQLVESGGGLVQPGGSLRLSCAASGFTVSSNYMSWVRQAPGKGLEWVSVIYSGGSTFYADSVKGRFTISRDNSMNTLFLQMNSLRAEDTAVYYCARVLPMYGDYLDYWGQGTLVTVSS
VL: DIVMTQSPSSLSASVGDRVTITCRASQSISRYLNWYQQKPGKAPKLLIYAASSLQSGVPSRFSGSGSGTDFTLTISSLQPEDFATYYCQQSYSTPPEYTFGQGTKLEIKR
Work on B1 yielded a Kd [1] of 6.8 nM, a Kd [2] of 6.83 nM and a koff [2] of 0.00988 s⁻¹. It also gave a kon [2] of 1.46e+06 M⁻¹ s⁻¹.
